# Data as given in PMC11426443, “Signal-sensing triggers the shutdown of HemKR, regulating heme and iron metabolism in the spirochete Leptospira biflexa” (PLOS ONE, 2024).
# Assays:
# [1] = target: T1, HemKΔ80 (Leptospira biflexa, UniProt A5JUR4); assay: autophosphorylation, PhosTag-SDS-PAGE; type: biochemical; conditions: 5 mM ATP, 10 mM MgCl2; phosphoryl transfer to HemK H98
# T1 construct: gene LEPBI_I1423; soluble cytoplasmic catalytic region lacking first 80 residues (periplasmic and transmembrane); N-terminal His-tag cut by TEV; E. coli Rosetta-gami(DE3)
# T1 sequence (A5JUR4 81-295): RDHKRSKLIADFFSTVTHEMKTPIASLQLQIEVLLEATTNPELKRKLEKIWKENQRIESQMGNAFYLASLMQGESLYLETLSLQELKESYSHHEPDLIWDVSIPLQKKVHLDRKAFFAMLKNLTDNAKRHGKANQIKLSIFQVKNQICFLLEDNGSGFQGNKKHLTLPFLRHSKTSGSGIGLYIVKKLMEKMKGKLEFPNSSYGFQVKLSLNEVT
# [2] = target: phosphorylated HemRFL (full-length HemR, phosphorylated) (Leptospira biflexa); assay: SEC; 600 uM HemRREC or HemRFL incubated with 5 mM acetyl phosphate, 10 mM MgCl2; dimeric phosphorylated form separated from monomeric non-phosphorylated form on Superdex 10/300 75 prep
# [3] = target: phosphorylated HemRREC (receiver domain of HemR, phosphorylated) (Leptospira biflexa); assay: as above
compound,measurement,setting,value
Nc1ncnc2c1ncn2[C@@H]1O[C@H](COP(=O)(O)OP(=O)(O)OP(=O)(O)O)[C@@H](O)[C@H]1O [ATP],"autophosphorylation, PhosTag-SDS-PAGE",[1],possesses ATP-dependent autokinase activity (Fig 1A)
"phosphorylated HemRFL (full-length HemR, phosphorylated) (natural protein)",stoichiometry N,[2],2
"phosphorylated HemRREC (receiver domain of HemR, phosphorylated) (domain or fragment)",stoichiometry N,[3],2
